Test: soluble fraction after stress (log2 fold change); higher = more stays soluble; pooled small domains, quantitative proteomics
Conditions: stress: 75 degC
For “HMSPRAIYVTTSDLNMRMQPSPNAYKRGVAPRGTELLVVEWGDDWSKVIFEGDTAYAASRYLSYVKDEP”, the “soluble fraction (log2)” value was -1.74.
In the case of “HMSQDEVVADMKADLGPDADNIIRSNIQWADGLVRKGILTESEREELDVMGGTPEAQRILVKLRTMQG”, the “soluble fraction (log2)” value is reported as 0.178.
With “HMSQDTLIENGKVFLIHKVVAGQTLYGLSKAYNITIEDIIKYNPQAENGIKIGEDIKIFLKEE” the “soluble fraction (log2)” value was -0.924.
For “HMSQEHTVPDYKDMEATVVYADLTQKGLNYEIAQETSPTIKEGNVTQTIPGMNEKVVSGDTITVFVSTGTG”, the “soluble fraction (log2)” value was 0.431.
In the case of “HMSQIDLQIGHKIKSKRRKLGISQADMAKKLYISPSYLNLIESGKRKINVDLLLKLSNELGIEMSDIS”, the “soluble fraction (log2)” value is reported as -1.97.
For “HMSQIILSARSGHAALRHRLGELGYTFADKEFDDIYERFLEVADQKKEVYDEDLESIVQERQRD”, the “soluble fraction (log2)” value was 0.00498.
With “HMSQITEADYIPNTDKTWGELMEETGESLPNLVERYNNEMTKSNGKEQPQSIIQRIIEDYQMVS” the “soluble fraction (log2)” value was 0.253.
For “HMSQLSDEQELRDIARGIIEGNPNEAEKYRAGRTGLLGFFVGKLMAETEGKANPRLASRILKELLE”, the “soluble fraction (log2)” value was -0.144.
For “HMSQLSQIVDAFGGLRPFARALNKPPSTVQYWIEKGGIPASVVSPIMKLSEEKGLGLSRDQVSAAVS”, the “soluble fraction (log2)” value was 0.441.
With “HMSQLTVGTVVTGNASLQTQGLKLPSFASGSRPASPNIGQMIWNSSDAKAQIWNGSEWDDVG” the “soluble fraction (log2)” value was -0.0784.
For “HMSQNVSFTVDSGQAGLRLDVFLSQADPAFSRSQIKYAIEEGDVTVNGKEPKVSQHLKDGDIVELHLE”, the “soluble fraction (log2)” value was 0.0493.
In the case of “HMSQQEAQLNSLVKIYESMKPKDAARIFDTLDMDVLLDVVMRMKEARSAAVLAEMTPDRAKEVTLQLAD”, the “soluble fraction (log2)” value is reported as -0.912.
For “HMSQTDQALRHLIREAWATLPQRQQQAVELAYYEGLPDTEIAARLNQPVEEVKTSIVLGMAHLREALHSY”, the “soluble fraction (log2)” value was -0.811.
For “HMSQTDTDAKDARQKILALLSDGEWHQKTELLKIDAPKEAVSNAIRYLVLEELISIDHAKVRA”, the “soluble fraction (log2)” value was -0.447.
For “HMSQTVKYVNTTSGLNMRTGPATSYAKITTIAYGQSVNVLSTSNGWSKINYSGSTGYVSSQYLQSKKPS”, the “soluble fraction (log2)” value was -2.77.
In the case of “HMSQVHYAVLFKNASAAEATEIVTYARETLGVQDIKINANGDILVPEDKVEEMRVSMSIAGFPK”, the “soluble fraction (log2)” value is reported as 0.23.
For “HMSQVSTKYINVSSAYVRSKPSKDGEIVTSLIKNTDVTVTGENGDWYKIKFNNYEGYIFKELLSDSKLEE”, the “soluble fraction (log2)” value was -0.442.
With “HMSRAMFEMHADWQPTDSIRGLLGRAGLPTDIAKLDQSRIGDFVNHWFGKPDRNTADSWNGLLVGWLKRTQ” the “soluble fraction (log2)” value was -1.18.
With “HMSREEFLAGLEEALAGEVPASVIRENLNYYNSYISQEMAKGRTVDEIVDEIGEPRIVARTIIDSSEAAGE” the “soluble fraction (log2)” value was 0.319.
With “HMSRELVILGNSMLNNALKAFHVSPASIKKKHWDKLILDYHLESKNNILIDIALGKRINVMVAHQLTSIID” the “soluble fraction (log2)” value was 0.408.
With “HMSREVTVPPLSGLTLRDAARTLAERGLLMEAEGQGAVHRQDPPAGTRVPTGTPVRVFLTLPEQNS” the “soluble fraction (log2)” value was 0.842.
In the case of “HMSRGTLFVDVRGAVAKPGVYELPEKSRVFQAVEAAGGLLPEALERLVNQAAELTDGQQVYIPFEGEE”, the “soluble fraction (log2)” value is reported as 0.405.
For “HMSRLLRTDAHLQYAAERGLPVTASAYTPVFAGAKQYTGRIESFDAQTIRFADGPAVERKAVARLEAE”, the “soluble fraction (log2)” value was 0.104.
With “HMSRLLTTRQREVFEVATREGFWDVPRRINLSELAKVLGVAKSTLSSQLQRIESAVFHAFTDEIRRQS” the “soluble fraction (log2)” value was -2.09.
In the case of “HMSRMLTVKQREVFDLAMREGYWETPRRITLTMLASLLSVSKSTLSVQLHKIEGTVLSSFSDEVRRRS”, the “soluble fraction (log2)” value is reported as -1.87.
For “HMSRQDYLQTIYRLSVGKGYTTNKKIADFLSVSKPSVTEMIGKLQGEGLVAMDGAHIFLTEDGAEQ”, the “soluble fraction (log2)” value was -0.595.
With “HMSRVTVDVNPDVLQWAIDKKGKGDIKNKFPKIDEWLNGISKPTIHQLENFAKYVSVPFGYLLLSKPPVE” the “soluble fraction (log2)” value was 0.208.
In the case of “HMSRYQDIANDIEKDIIEKKYTRKLPEQFELAQKYQTSRVTIVHALKILQNKKLIRTVKGHGTFITS”, the “soluble fraction (log2)” value is reported as -1.84.
With “HMSSDEDELESIIKRVFADNPIELERLQNGEDKLIKFFMGLVMRQTKGKYPPKIIIDLLNKS” the “soluble fraction (log2)” value was -0.599.
In the case of “HMSSDLDQYMKNIRKQHNLSKREFAKQLGISAATIVRIENGITVSPSKNLISKLAYYLQKSEVEILQDIQS”, the “soluble fraction (log2)” value is reported as -1.16.
For “HMSSEMATLRSIVDNKQAEKVHGMMVDMFTASAMVQVYDKVNDENQAKMREMLKTQKGFQRMADFALSKI”, the “soluble fraction (log2)” value was -0.143.
For “HMSSEPASLVGKTGVAASVLRPSGRVEVNGEYYDAVSINGFIEKGESVFVHKYENAQLYVSKNSE”, the “soluble fraction (log2)” value was 0.162.
In the case of “HMSSESIKTDKNVGVGSTLEELEKAYGSDYTLSGKMYRYYQDDNSKYMYFFILNDVVQYYGYGIDV”, the “soluble fraction (log2)” value is reported as -1.65.
With “HMSSIDLTARSGRAALKHRLSLLGYEFSKIELETLYVRFIELADEKKLLHDEDLIELVKEKN” the “soluble fraction (log2)” value was -3.12.
In the case of “HMSSIRDVVPEGLLSDREKLVLVLAFDRDLDGPDMARTLGISANTVRVLKARALKKLRQAGIQP”, the “soluble fraction (log2)” value is reported as -0.954.
For “HMSSIVLTARSGRAALAYRVKSIGVDLSKDQLDLVYKTFLGFADKKKEIIDTDIPQILKASGI”, the “soluble fraction (log2)” value was -2.74.
For “HMSSIYVYPNPTANRIYIQADNIKKAELFDLMGRKVRSTNQPQIDISRLSRGNYILQVKTQNNTQSFKIIK”, the “soluble fraction (log2)” value was -0.705.
For “HMSSKAVLEKFEALFIDQMLQSMRKATVRSELFDSEGIKLYESLFDKEISEELAKSGGLGLTKDLEQQL”, the “soluble fraction (log2)” value was -1.36.
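Note: 20 min heating vs room temperature control held 20 min.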
